Assay results taken from US20120270234A1, “DDR2 PROTEIN WITH ACTIVATED KINASE ACTIVITY AND PREPARATION METHOD THEREOF” (KOREA INSTITUTE OF SCIENCE AND TECHNOLOGY, priority 2003, published 2012).

T1: fusion protein of glutathione S transferase and human DDR2 cytosolic tyrosine kinase domain (GST-DDR2 CKD), expressed alone in sf9 cells
T1 sequence: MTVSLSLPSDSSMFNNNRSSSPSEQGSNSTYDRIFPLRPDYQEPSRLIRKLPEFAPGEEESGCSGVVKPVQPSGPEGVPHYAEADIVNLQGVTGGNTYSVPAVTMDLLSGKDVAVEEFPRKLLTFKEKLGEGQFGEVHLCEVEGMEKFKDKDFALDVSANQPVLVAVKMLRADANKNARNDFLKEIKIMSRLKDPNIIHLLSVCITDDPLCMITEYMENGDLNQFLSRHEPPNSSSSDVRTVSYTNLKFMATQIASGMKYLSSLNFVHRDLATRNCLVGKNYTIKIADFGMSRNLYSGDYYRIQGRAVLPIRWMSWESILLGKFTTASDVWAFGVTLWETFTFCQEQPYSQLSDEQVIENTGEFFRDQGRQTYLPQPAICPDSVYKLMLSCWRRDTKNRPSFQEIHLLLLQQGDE

B1: p-GST-DDR2 CKD by Src: tyrosine phosphorylation-induced GST-DDR2 CKD obtained by co-expression with the c-Src protein in sf 9 cells (protein)
chain: MTVSLSLPSDSSMFNNNRSSSPSEQGSNSTYDRIFPLRPDYQEPSRLIRKLPEFAPGEEESGCSGVVKPVQPSGPEGVPHYAEADIVNLQGVTGGNTYSVPAVTMDLLSGKDVAVEEFPRKLLTFKEKLGEGQFGEVHLCEVEGMEKFKDKDFALDVSANQPVLVAVKMLRADANKNARNDFLKEIKIMSRLKDPNIIHLLSVCITDDPLCMITEYMENGDLNQFLSRHEPPNSSSSDVRTVSYTNLKFMATQIASGMKYLSSLNFVHRDLATRNCLVGKNYTIKIADFGMSRNLYSGDYYRIQGRAVLPIRWMSWESILLGKFTTASDVWAFGVTLWETFTFCQEQPYSQLSDEQVIENTGEFFRDQGRQTYLPQPAICPDSVYKLMLSCWRRDTKNRPSFQEIHLLLLQQGDE
modifications: left off: a dimerising Fc or GST
notes: tyrosine phosphorylation-induced GST-DDR2 CKD obtained by co-expression with the c-Src protein in sf 9 cells

Tests used:
[1] = system: T1, fusion protein of glutathione S transferase and human DDR2 cytosolic tyrosine kinase domain (GST-DDR2 CKD), expressed alone in sf9 cells
Histone H2B = test: tyrosine kinase activity using Histone H2B as substrate; assay type: biochemical; details: reciprocal plotting 1/V vs 1/[ATP]; FIG. 9, FIG. 10
Description: The GST-DDR2 CKD was solely expressed or co-expressed with the c-Src protein at the ratio of 1:1 in insect cells; the respective obtained GST-DDR2 CKDs were purified; and the tyrosine kinase activities depending on the concentration of ATP were determined using the same amounts of the tyrosine phosphorylation-induced GST-DDR2 CKD (p-GST-DDR2 CKD by Src) which is obtained by co-expression with the c-Src protein in sf 9 cells and non-phosphorylated GST-DDR2 CKD which is obtained by solely expression in sf9 cells.
All measurements were done in triplicate.
The same amount of each protein as judged by CBB staining was used to measure its in vitro tyrosine kinase activity using histone H2B as a substrate as described in materials and methods and their tyrosine kinase activities were shown by autoradiography. Negative stands for a kinase reaction without kinase protein as a control.
Measurement of DDR2 tyrosine kinase activity towards heterologous peptide substrates was performed using 100 ng of the purified kinase protein in 20 ul of reaction mixture containing 20 mM Tris-HCl, pH 8.0, 5 mM MgCl2, 0.5 mM dithiothreitol, 0.01 mM ATP. […] The spotted filter was washed with 0.1M Tris-HCl (pH 8.0) five times for 10 min each and the radioactivity of each spot was visualized and quantitated using BAS image analyzer (Kodak).

shc protein = test: in vitro shc binding assay using HSC T6 cell lysate; set-up: species or system human
From the text: One of the characteristic features of tyrosine phosphorylated cytosolic domain of receptor tyrosine kinase is to recruit the signaling proteins such as shc protein. This complex formation between the cytosolic domain of receptor tyrosine kinase protein and signaling proteins such as shc is important for the cellular transmission of the activated receptor tyrosine kinase signal. It has been observed in HSC T6 liver stellate cells and fibroblast cells that shc, one of signaling protein containing PTB domain binds to activated DDR2 cytosolic domain. The present inventors examined whether the invented DDR2 cytosolic tyrosine kinase domain protein with induced tyrosine phosphorylation for example, by the method of co-expression with c-Src in sf 9 cells or with the mutation of tyrosine 740 to phenylalanine 740 can be used for in vitro shc binding assay. In FIG. 15, the purified GST-DDR2 cytosolic domain from sf 9 cells with and without Src coinfection were used for in vitro shc binding assay. Each protein was subject to autophosphorylation reaction at 30° C. for 15 min, and a mock-autophosphylation reaction as well where gamma-S-ATP was used instead of ATP in the reaction buffer before they were used for in vitro shc binding assay using HSC T6 cell lysate.
The purified GST-DDR2 CKD proteins without or with tyrosine phosphorylation by Src were subject to in vitro shc binding assay after autophosphorylation reaction or a mock-autophosphorylation reaction as described in materials and methods. The bound proteins on the glutathione bead were eluted by boiling in 1× lameli buffer. The presence of shc in the eluate was measured by western blotting using shc antibody and the accumulation of tyrosine phosphorylation at GST-DDR2 CKD proteins resulted from autophosphorylation was shown by western blotting using P-tyro antibody. The presence of an equal amount of GST-DDR2 CKD proteins in each eluate was confirmed by CBB staining. ‘Bead only’ means that no GST-DDR2 CKD protein was applied on glutathione bead as a control.
The same type of experiment was done as FIG. 15 using purified GST-DDR2 CKD phosphorylated by src and its mutant proteins of Y740F and Y736/740/741F.
As a source of shc protein, total lysate of HSC T6 cells was used. For the preparation of the lysate, 2×10^7 HSC T6 cells were harvested and lysed by sonication in 5 ml of lysis buffer consisting of 20 mM Tris-HCl (pH8.0), 0.1M NaCl, 5 mM DTT, 10 mM NaF, […], 0.02% IGE-PAL (Sigma) and a proteinase inhibitor cocktail pellet (Roche). The supernatant was obtained by centrifugation in 15,000 rpm for 10 min at 4° C. and used for the following shc binding assay. Various GST-DDR2 KD proteins bound to glutathione bead were obtained as described above. […]

Molecule | level of tyrosine phosphorylation of GST-DDR2 CKD against the ratio of the two baculoviruses (western blot, phosphorylated tyrosine specific antibody) [1] | Km value for ATP compared with the non-phosphorylated control protein (Histone H2B) | Vmax compared with the non-phosphorylated control protein (Histone H2B) | shc binding after in vitro autophosphorylation reaction (shc protein; autophosphorylation at 30° C. for 15 min, FIG. 15, FIG. 16) | shc binding before in vitro autophosphorylation (shc protein; mock-autophosphorylation with gamma-S-ATP, FIG. 15)
full-length human c-Src tyrosine kinase | The tyrosine phosphorylation at the DDR2 cytosolic tyrosine kinase domain was meaningfully induced, when the DDR2 kinase expression virus and the c-Src protein expression virus are co-expressed even at the ratio of 19:1 | – | – | – | –
B1 | – | decreased | increased | significantly increased | some shc binding
